Biological target: the molecule itself
Test: native gel or EMSA; 12% native PAGE in nonreducing condition (without SDS and β-mercaptoethanol), samples not boiled; monomer chain to dimer (the paper calls it disulfide linked)

B1: recombinant human Bone Morphogenetic Protein 2 (rhBMP2) monomer, from pHT43-BMP2-M (ligand, UniProt P12643 283-396, looked up)
chain: QAKHKQRKRLKSSCKRHPLYVDFSDVGWNDWIVAPPGYHAFYCHGECPFPLADHLNSTNHAIVQTLVNSVNSKIPKACCVPTELSAISMLYLDENEKVVLKNYQDMVVEGCGCR
notes: Bone Morphogenetic Protein 2, human, mature domain / mature peptide (~399 bp amplicon with sites and His-tag); RBMP2-M, translated, gives ...EGCGCR then GRG then HHHHHH and stop, so three residues (GRG) may lie between BMP2 and the His-tag; also called rhBMP (monomer); source: B. subtilis SCK6, secreted into the culture supernatant (pHT43, amyQ signal peptide); purified by FPLC (Resource Q)
  stoichiometry N: 2

— publication PMC5733156, “Heterologous Secretory Expression and Characterization of Dimerized Bone Morphogenetic Protein 2 in Bacillus subtilis” (BioMed Research International, 2017)
